Source: publication PMC2116055
Blank lines part the entries; values can stand above or below the substance they belong to.

Assays:
Assay in all cases: non-reducing SDS-PAGE of immunoprecipitates
[1] = molecular target: recombinant rat fibronectin, A form (with EIIIA only), expressed in WEHI231 cells (rat)
[2] = molecular target: recombinant rat fibronectin, B form (with EIIIB only), expressed in WEHI231 cells (rat)
[3] = molecular target: recombinant rat fibronectin, O form (no EIIIB, EIIIA or V segment), expressed in WEHI231 cells (rat)
[4] = molecular target: recombinant rat fibronectin, V form (with the V segment only), expressed in WEHI231 cells (rat)

stoichiometry N [1]: 2
Substance: recombinant rat fibronectin, A form (with EIIIA only), expressed in WEHI231 cells (natural protein)

stoichiometry N [2]: 2
Substance: recombinant rat fibronectin, B form (with EIIIB only), expressed in WEHI231 cells (natural protein)

percent in the dimeric form [3]: 50% | stoichiometry N [3]: 2
Substance: recombinant rat fibronectin, O form (no EIIIB, EIIIA or V segment), expressed in WEHI231 cells (natural protein)

percent in the dimeric form [4]: 90% | stoichiometry N [4]: 2
Substance: recombinant rat fibronectin, V form (with the V segment only), expressed in WEHI231 cells (natural protein)
